For one substance, Kd results are on record in publication PMC4210639.

For orientation: Kd means a measure of binding affinity in units of concentration. High values mean weaker binding, low ones tighter binding.

The assay deals with FLRT^LRR (SPR test of FLRT^LRR-FLRT^LRR binding). The assay is described as follows: SPR.

In the case of “FLRT^LRR (SPR test of FLRT^LRR-FLRT^LRR binding)”, the Kd is more than 100 µM.
